This note sets out measurements from publication PMC5479831, “Semi-rational engineering of a thermostable aldo–keto reductase from Thermotoga maritima for synthesis of enantiopure ethyl-2-hydroxy-4-phenylbutyrate (EHPB)” (Scientific Reports, 2017).

Residue numbers refer to the chain shown, from its start. In names and notes the source's numbering stands.

First the molecules themselves.
B1: Tm1743 (Thermotoga maritima MSB8) (protein)
chain: MLYKELGRTGEEIPALGLGTWGIGGFETPDYSRDEEMVELLKTAIKMGYTHIDTAEYYGGGHTEELIGKAIKDFRREDLFIVSKVWPTHLRRDDLLRSLENTLKRLDTDYVDLYLIHWPNPEIPLEETLSAMAEGVRQGLIRYIGVSNFDRRLLEEAISKSQEPIVCDQVKYNIEDRDPERDGLLEFCQKNGVTLVAYSPLRRTLLSEKTKRTLEEIAKNHGATIYQIMLAWLLAKPNVVAIPKAGRVEHLRENLKATEIKLSEEEMKLLDSLG
B2: Tm1743 (Thermotoga maritima MSB8; W118H/W21L) (protein)
chain: B1 chain with W21L, W118H
B3: Tm1743 (Thermotoga maritima MSB8; W118E/W21L) (protein)
chain: B1 chain with W21L, W118E
B4: Tm1743 (Thermotoga maritima MSB8; W21S/W86N) (protein)
chain: B1 chain with W21S, W86N
B5: Tm1743 (Thermotoga maritima MSB8; W21S/W86E) (protein)
chain: B1 chain with W21S, W86E

For one data set, the target named is T1, Tm1743 (Thermotoga maritima, UniProt Q9X265).
T1 construct: gene TM_1743
Nature of the data set: X-ray crystal structure, […] Å. The conditions noted are these: co-crystallised, protein:NADP+ 1:1.5 molar; cofactor binding site.
Take `NC(=O)c1ccc[n+]([C@@H]2O[C@H](COP(=O)(O)OP(=O)(O)OC[C@H]3O[C@@H](n4cnc5c(N)ncnc54)[C@H](OP(=O)(O)O)[C@@H]3O)[C@@H](O)[C@H]2O)c1` [NADP^+]: the “X-ray crystal structure, 2.0 Å” value was “we crystallized Tm1743 in complex with the cofactor NADP^+”.

Substrate in a further data set: CCOC(=O)C(=O)CCc1ccccc1
Description: purified protein. Format: biochemical, Thermotoga maritima. The conditions noted are these: apparent, 0.25 mM NADPH, 50 mM potassium phosphate pH 6.5, 35 °C, 30 mM DMSO.
As for B1, the Km turned out to be 1100 ± 40 µM, the catalytic constant (kcat) is 1.96 ± 0.02 s⁻¹ and the catalytic efficiency (kcat/Km) was 1780 ± 30 M⁻¹ s⁻¹.
Taken in the same sequence, the figures for B2 were 15980 ± 200 µM, 1.98 ± 0.01 s⁻¹ and 120 ± 10 M⁻¹ s⁻¹.
Taken in the same sequence, the figures for B3 were 10530 ± 100 µM, 1.98 ± 0.02 s⁻¹ and 190 ± 10 M⁻¹ s⁻¹.
Taken in the same sequence, the figures for B4 were 1620 ± 20 µM, 0.84 ± 0.01 s⁻¹ and 510 ± 20 M⁻¹ s⁻¹.
As for B5, the Km was 1250 ± 20 µM, the catalytic constant (kcat) turned out to be 1.01 ± 0.01 s⁻¹ and the kcat/Km is 810 ± 20 M⁻¹ s⁻¹.

For orientation: Km means the substrate concentration at which the rate is half of its maximum. As usually defined, the kcat is the maximal rate divided by the concentration of active sites. For orientation: kcat/Km means the second-order rate constant that governs catalysis at low substrate concentration.
